From US20050100540A1, “Platelet-activating factor acetylhydrolase” (priority 1993, published 2005)

B1: C407S: PAF-AH cysteine to serine mutant expressed in E. coli (protein)
chain: MVPPKLHVLFCLCGCLAVVYPFDWQYINPVAHMKSSAWVNKIQVLMAAASFGQTKIPRGNGPYSVGCTDLMFDHTNKGTFLRLYYPSQDNDRLDTLWIPNKEYFWGLSKFLGTHWLMGNILRLLFGSMTTPANWNSPLRPGEKYPLVVFSHGLGAFRTLYSAIGIDLASHGFIVAAVEHRDRSASATYYFKDQSAAEIGDKSWLYLRTLKQEEETHIRNEQVRQRAKECSQALSLILDIDHGKPVKNALDLKFDMEQLKDSIDREKIAVIGHSFGGATVIQTLSEDQRFRCGIALDAWMFPLGDEVYSRIPQPLFFINSEYFQYPANIIKMKKCYSPDKERKMITIRGSVHQNFADFTFATGKIIGHMLKLKGDIDSNVAIDLSNKASLAFLQKHLGLHKDFDQWDSLIEGDDENLIPGTNINTTNQHIMLQNSSGIEKYN
B2: D296A: PAF-AH amino acid substitution product expressed in E. coli (protein)
chain: MVPPKLHVLFCLCGCLAVVYPFDWQYINPVAHMKSSAWVNKIQVLMAAASFGQTKIPRGNGPYSVGCTDLMFDHTNKGTFLRLYYPSQDNDRLDTLWIPNKEYFWGLSKFLGTHWLMGNILRLLFGSMTTPANWNSPLRPGEKYPLVVFSHGLGAFRTLYSAIGIDLASHGFIVAAVEHRDRSASATYYFKDQSAAEIGDKSWLYLRTLKQEEETHIRNEQVRQRAKECSQALSLILDIDHGKPVKNALDLKFDMEQLKDSIDREKIAVIGHSFGGATVIQTLSEDQRFRCGIALAAWMFPLGDEVYSRIPQPLFFINSEYFQYPANIIKMKKCYSPDKERKMITIRGSVHQNFADFTFATGKIIGHMLKLKGDIDSNVAIDLSNKASLAFLQKHLGLHKDFDQWDCLIEGDDENLIPGTNINTTNQHIMLQNSSGIEKYN
B3: S108A: PAF-AH amino acid substitution product expressed in E. coli (protein)
chain: MVPPKLHVLFCLCGCLAVVYPFDWQYINPVAHMKSSAWVNKIQVLMAAASFGQTKIPRGNGPYSVGCTDLMFDHTNKGTFLRLYYPSQDNDRLDTLWIPNKEYFWGLAKFLGTHWLMGNILRLLFGSMTTPANWNSPLRPGEKYPLVVFSHGLGAFRTLYSAIGIDLASHGFIVAAVEHRDRSASATYYFKDQSAAEIGDKSWLYLRTLKQEEETHIRNEQVRQRAKECSQALSLILDIDHGKPVKNALDLKFDMEQLKDSIDREKIAVIGHSFGGATVIQTLSEDQRFRCGIALDAWMFPLGDEVYSRIPQPLFFINSEYFQYPANIIKMKKCYSPDKERKMITIRGSVHQNFADFTFATGKIIGHMLKLKGDIDSNVAIDLSNKASLAFLQKHLGLHKDFDQWDCLIEGDDENLIPGTNINTTNQHIMLQNSSGIEKYN
B4: D286N: PAF-AH amino acid substitution product expressed in E. coli (protein)
chain: MVPPKLHVLFCLCGCLAVVYPFDWQYINPVAHMKSSAWVNKIQVLMAAASFGQTKIPRGNGPYSVGCTDLMFDHTNKGTFLRLYYPSQDNDRLDTLWIPNKEYFWGLSKFLGTHWLMGNILRLLFGSMTTPANWNSPLRPGEKYPLVVFSHGLGAFRTLYSAIGIDLASHGFIVAAVEHRDRSASATYYFKDQSAAEIGDKSWLYLRTLKQEEETHIRNEQVRQRAKECSQALSLILDIDHGKPVKNALDLKFDMEQLKDSIDREKIAVIGHSFGGATVIQTLSENQRFRCGIALDAWMFPLGDEVYSRIPQPLFFINSEYFQYPANIIKMKKCYSPDKERKMITIRGSVHQNFADFTFATGKIIGHMLKLKGDIDSNVAIDLSNKASLAFLQKHLGLHKDFDQWDCLIEGDDENLIPGTNINTTNQHIMLQNSSGIEKYN
B5: S273A: PAF-AH amino acid substitution product expressed in E. coli (protein)
chain: MVPPKLHVLFCLCGCLAVVYPFDWQYINPVAHMKSSAWVNKIQVLMAAASFGQTKIPRGNGPYSVGCTDLMFDHTNKGTFLRLYYPSQDNDRLDTLWIPNKEYFWGLSKFLGTHWLMGNILRLLFGSMTTPANWNSPLRPGEKYPLVVFSHGLGAFRTLYSAIGIDLASHGFIVAAVEHRDRSASATYYFKDQSAAEIGDKSWLYLRTLKQEEETHIRNEQVRQRAKECSQALSLILDIDHGKPVKNALDLKFDMEQLKDSIDREKIAVIGHAFGGATVIQTLSEDQRFRCGIALDAWMFPLGDEVYSRIPQPLFFINSEYFQYPANIIKMKKCYSPDKERKMITIRGSVHQNFADFTFATGKIIGHMLKLKGDIDSNVAIDLSNKASLAFLQKHLGLHKDFDQWDCLIEGDDENLIPGTNINTTNQHIMLQNSSGIEKYN
B6: D286A: PAF-AH amino acid substitution product expressed in E. coli (protein)
chain: MVPPKLHVLFCLCGCLAVVYPFDWQYINPVAHMKSSAWVNKIQVLMAAASFGQTKIPRGNGPYSVGCTDLMFDHTNKGTFLRLYYPSQDNDRLDTLWIPNKEYFWGLSKFLGTHWLMGNILRLLFGSMTTPANWNSPLRPGEKYPLVVFSHGLGAFRTLYSAIGIDLASHGFIVAAVEHRDRSASATYYFKDQSAAEIGDKSWLYLRTLKQEEETHIRNEQVRQRAKECSQALSLILDIDHGKPVKNALDLKFDMEQLKDSIDREKIAVIGHSFGGATVIQTLSEAQRFRCGIALDAWMFPLGDEVYSRIPQPLFFINSEYFQYPANIIKMKKCYSPDKERKMITIRGSVHQNFADFTFATGKIIGHMLKLKGDIDSNVAIDLSNKASLAFLQKHLGLHKDFDQWDCLIEGDDENLIPGTNINTTNQHIMLQNSSGIEKYN
B7: Wild type: Wild type human PAF-AH expressed in E. coli, reference of Table 8 (protein, UniProt Q13093 22-441, looked up)
Platelet-activating factor …: FDWQYINPVAHMKSSAWVNKIQVLMAAASFGQTKIPRGNGPYSVGCTDLMFDHTNKGTFLRLYYPSQDNDRLDTLWIPNKEYFWGLSKFLGTHWLMGNILRLLFGSMTTPANWNSPLRPGEKYPLVVFSHGLGAFRTLYSAIGIDLASHGFIVAAVEHRDRSASATYYFKDQSAAEIGDKSWLYLRTLKQEEETHIRNEQVRQRAKECSQALSLILDIDHGKPVKNALDLKFDMEQLKDSIDREKIAVIGHSFGGATVIQTLSEDQRFRCGIALDAWMFPLGDEVYSRIPQPLFFINSEYFQYPANIIKMKKCYSPDKERKMITIRGSVHQNFADFTFATGKIIGHMLKLKGDIDSNVAIDLSNKASLAFLQKHLGLHKDFDQWDCLIEGDDENLIPGTNINTTNQHIMLQNSSGIEKYN

Experiment: PAF-AH activity of amino acid substitution products expressed in E. coli
Assay type: biochemical
Conditions: point mutants expressed in E. coli
Text: By site-directed mutagenesis and PCR, individual codons of the human PAF-AH coding sequence were modified to encode alanine residues and were expressed in E. coli. […] The distances between active site residues is similar for PAF-AH (Ser to Asp, 23 amino acids; Ser to His, 78 amino acids) and other lipases. […] Cysteines are often critical for the functional integrity of proteins because of their capacity to form disulfide bonds. The plasma PAF-AH enzyme contains five cysteines. To determine whether any of the five is critical for enzyme actvity, each cysteine was mutated individually to a serine and the resulting mutants were expressed in E. coli. As shown below in Table 8, a significant but not total loss of PAF-AH activity resulted from the conversion of either Cys229, r Cys291 to serine. Therefore, these cysteines appear to be necessary for full PAF-AH activity. Other point mutations had little or no effect on PAF-AH catalytic activity. In Table 8, “++++” represent wild type PAF-AH activity of about 40-60 U/ml/OD600, “+++” represents about 20-40 U/ml/OD600 activity, “++” represents about 10-20 U/ml/OD600 activity, “+” represents 1-10 U/ml/OD600 activity, and “−” indicates <1 U/ml/OD600 activity.
To test whether this mutation crippled the enzyme, an E. coli expression construct containing the mutation was generated by methods similar to that described in Example 10. […] This amino acid substitution presumably results in a structural modification which causes the observed deficiency of activity and lack of immunoreactivity with the PAF-AH antibodies of the invention.

Question: With B1 as the molecule, how does the PAF-AH activity read?
Answer: +++ (“+++” represents about 20-40 U/ml/OD600 activity)

Question: Which PAF-AH activity does the source give for B2 here?
Answer: − (“−” indicates <1 U/ml/OD600 activity)

Question: For B3, which PAF-AH activity is on record?
Answer: ++++ (“++++” represent wild type PAF-AH activity of about 40-60 U/ml/OD600)

Question: For B4, which PAF-AH activity is on record?
Answer: ++ (“++” represents about 10-20 U/ml/OD600 activity)

Question: With B5 as the molecule, how does the PAF-AH activity read?
Answer: − (“−” indicates <1 U/ml/OD600 activity)

Question: Which PAF-AH activity does the source give for B6 here?
Answer: − (“−” indicates <1 U/ml/OD600 activity)

Question: Which PAF-AH activity does the source give for B7 here?
Answer: ++++ (“++++” represent wild type PAF-AH activity of about 40-60 U/ml/OD600)
